Data reported in PMC5450713 (Toxins, 2017).

B1: recombinant His-tagged Vip3Ag4 protein (natural protein, Bacillus thuringiensis, UniProt I6LPV9 1-787, looked up)
chain: MNKNNTKLNARALPSFIDYFNGIYGFATGIKDIMNMIFKTDTGGNLTLDEILKNQQLLNEISGKLDGVNGSLNDLIAQGNLNTELSKEILKIANEQNQVLNDVNNKLNAINTMLHIYLPKITSMLNDVMKQNYALSLQIEYLSKQLQEISDKLDVINVNVLINSTLTEITPAYQRMKYVNEKFEDLTFATETTLKVKKNSSPADILDELTELTELAKSVTKNDVDGFEFYLNTFHDVMVGNNLFGRSALKTASELIAKENVKTSGSEVGNVYNFLIVLTALQAKAFLTLTTCRKLLGLADIDYTFIMNEHLDKEKEEFRVNILPTLSNTFSNPNYAKAKGSNEDAKIIVEAKPGYALVGFEMSNDSITVLKAYQAKLKQDYQVDKDSLSEIVYGDMDKLLCPDQSEQIYYTNNIAFPNEYVITKITFTKKMNSLRYEATANFYDSSTGDIDLNKTKVESSEAEYSTLSASTDGVYMPLGIISETFLTPINGFGIVVDENSKLVNLTCKSYLREVLLATDLSNKETKLIVPPIGFISNIVENGNLEGENLEPWKANNKNAYVDHTGGVNGTKALYVHKDGEFSQFIGDKLKSKTEYVIQYIVKGKASILLKDEKNGDCIYEDTNNGLEDFQTITKSFITGTDSSGVHLIFNSQNGDEAFGENFTISEIRLSEDLLSPELINSDAWVGSQGTWISGNSLTINSNVNGTFRQNLSLESYSTYSMNFNVNGFAKVTVRNSREVLFEKNYPQLSPKDISEKFTTAANNTGLYVELSRFTSGGAINFRNFSIK
notes: Expected size with His-tag 91.38 kDa; also called Vip3Ag4 protoxin; unprocessed Vip3Ag4; source: E. coli BL21(DE3), pET28b, purified (Protino Ni-TED column, Sephacryl S-300 size exclusion); not shown: His tag, N-terminal, kept

Columns and labels:
[1] = target: trypsin-treated Vip3Ag4 (complex of the ~65 kDa and ~21 kDa products of proteolysis) (Bacillus thuringiensis) (UniProt I6LPV9); assay: SEC; SEC of trypsin-treated recombinant Vip3Ag4 compared with unprocessed material; fractions of the major peak analysed by SDS PAGE
[2] = target: the molecule itself; assay: SEC; Hi-Prep 16/60 Sephacryl S-300, 20 mM TrisHCl pH 8.0, 300 mM NaCl, 0.5 mL/min, calibrated with gel filtration standards; initial Vip3Ag4 preparation after nickel affinity
[3] = target: the molecule itself; assay: SEC-MALS; Superdex 200 10/300 Increase, 100 uL at 1.0 mg/mL, 20 mM TrisHCl, 300 mM NaCl, pH 8.0, 0.7 mL/min

Molecule	stoichiometry N [1]	stoichiometry N [2]	stoichiometry N [3]
trypsin-treated Vip3Ag4 (complex of the ~65 kDa and ~21 kDa products of proteolysis) (from UniProt I6LPV9 1-182; I6LPV9 199-787)	4	–	–
B1	–	~4	4
